Results reported in the Human Domainome abundance scans (Beltran et al. 2025).
± gives the uncertainty stated by the source.

B1: Dynamin-binding protein, residues 146 to 206; numbered along this chain, Q6XZF7 (parent)
chain: SMGQARALMGLSAQLDEELDFREGDVITIIGVPEPGWFEGELEGRRGIFPEGFVELLGPLR

Variants of: B1
Assay: abundance fitness (aPCA) (normalised: wild type 0, dead -1); higher = more abundant; growth selection in yeast, the domain comes from the species named
Details: Homo sapiens

Row | Variant | abundance fitness
1 | LMGQARALMGLSAQLDEELDFREGDVITIIGVPEPGWFEGELEGRRGIFPEGFVELLGPLR [S1L] | -0.554 ± 0.14
2 | NMGQARALMGLSAQLDEELDFREGDVITIIGVPEPGWFEGELEGRRGIFPEGFVELLGPLR [S1N] | -0.049 ± 0.11
3 | AMGQARALMGLSAQLDEELDFREGDVITIIGVPEPGWFEGELEGRRGIFPEGFVELLGPLR [S1A] | 0.121 ± 0.084
4 | SMGQARALMGLSAQLDEELDFREGDVITIIGVPEPGWFEGELLGRRGIFPEGFVELLGPLR [E43L] | -0.527 ± 0.19
5 | SMGQARALMGLSAQLDEELDFREGDVITIIGVPEPGWFEGELMGRRGIFPEGFVELLGPLR [E43M] | 0.06 ± 0.077
6 | SMGQARALMGLSAQLDEELDFREGDVITIIGVPEPGWFEGELDGRRGIFPEGFVELLGPLR [E43D] | 0.089 ± 0.06
7 | SMGQARALMGLSAQLDEELDFREGDVITIIGVPEPGWFEGELWGRRGIFPEGFVELLGPLR [E43W] | -0.747 ± 0.15
8 | SMGQARALMGLSAQLDEELDFREGDVITIIGVPEPGWFEGVLEGRRGIFPEGFVELLGPLR [E41V] | -0.148 ± 0.039
9 | SMGQARALMGLSAQLDEELDFREGDVITIIGVPEPGWFEGNLEGRRGIFPEGFVELLGPLR [E41N] | -0.608 ± 0.071
10 | SMGQARALMGLSAQLDEELDFREGDVITICGVPEPGWFEGELEGRRGIFPEGFVELLGPLR [I30C] | -0.599 ± 0.19
11 | SMGQARVLMGLSAQLDEELDFREGDVITIIGVPEPGWFEGELEGRRGIFPEGFVELLGPLR [A7V] | -0.836 ± 0.24
12 | SMGQARKLMGLSAQLDEELDFREGDVITIIGVPEPGWFEGELEGRRGIFPEGFVELLGPLR [A7K] | -0.672 ± 0.21
13 | SMGQARYLMGLSAQLDEELDFREGDVITIIGVPEPGWFEGELEGRRGIFPEGFVELLGPLR [A7Y] | -0.93 ± 0.12
14 | SMGQARALMGLSAQLDEELDFREGDQITIIGVPEPGWFEGELEGRRGIFPEGFVELLGPLR [V26Q] | -0.532 ± 0.14
15 | SMGQARALMGLLAQLDEELDFREGDVITIIGVPEPGWFEGELEGRRGIFPEGFVELLGPLR [S12L] | -0.641 ± 0.12
16 | SMGQARALMGLEAQLDEELDFREGDVITIIGVPEPGWFEGELEGRRGIFPEGFVELLGPLR [S12E] | -0.426 ± 0.45
17 | SMGQARALMGLSAKLDEELDFREGDVITIIGVPEPGWFEGELEGRRGIFPEGFVELLGPLR [Q14K] | -0.092 ± 0.29
18 | SMGQARALMGLSAQLDEELDFREGDVITIIGGPEPGWFEGELEGRRGIFPEGFVELLGPLR [V32G] | -0.599 ± 0.075
19 | SMGQARALMGLSAQLDEELDFREGDVICIIGVPEPGWFEGELEGRRGIFPEGFVELLGPLR [T28C] | -0.941 ± 0.2
20 | SMGQARALMGLSAQLDEELDFREGDVIEIIGVPEPGWFEGELEGRRGIFPEGFVELLGPLR [T28E] | 0.016 ± 0.17
21 | SMGQARALMGLSAQLDEELDFREGDVITIIGVPEPGWFEGELEGGRGIFPEGFVELLGPLR [R45G] | -0.961 ± 0.27
22 | SMGQARALMGLSAQLDEELDFREGDVITIIGVPEPGWFEGELEGRRGIFPEGFVELLGPLH [R61H] | -0.153 ± 0.08

Row | Variant | abundance fitness
23 | SMGQARALMGLSAQLDEELDFREGDVITIIGVPEPGWFEGELEGRRGIFPEGFVELLGPLT [R61T] | -0.046 ± 0.072
24 | SMGQARALMGLSAQLDEELDFREGDVITIIGVPEPGWFEGELEGRRGIFPEGFVELLGPLC [R61C] | -0.234 ± 0.11
25 | SMGQARALMGLSAQLDEELDFREGDVITPIGVPEPGWFEGELEGRRGIFPEGFVELLGPLR [I29P] | -0.595 ± 0.21
26 | SMGQARALMGLSAQTDEELDFREGDVITIIGVPEPGWFEGELEGRRGIFPEGFVELLGPLR [L15T] | 0.273 ± 0.12
27 | SMGQARALMGLSAQEDEELDFREGDVITIIGVPEPGWFEGELEGRRGIFPEGFVELLGPLR [L15E] | 0.034 ± 0.3
28 | SMGQARALMGLSAQLDEELDFREGDVITIIKVPEPGWFEGELEGRRGIFPEGFVELLGPLR [G31K] | -0.085 ± 0.24
29 | SMGQARALMGLSAQLDEELDFREGDVITIIYVPEPGWFEGELEGRRGIFPEGFVELLGPLR [G31Y] | -0.975 ± 0.42
30 | SMGQARALMGLSAQLDEELDFREGDVITIIGVPEPGWFEGELEGRRGIFPEGFVELNGPLR [L57N] | -0.375 ± 0.052
31 | SMGQARALMGLSAQLDEELDFREGDVITIIGVPEPGGFEGELEGRRGIFPEGFVELLGPLR [W37G] | -0.652 ± 0.053
32 | SMGQARALMGLSAQLDEELDFREGDVITIIGVFEPGWFEGELEGRRGIFPEGFVELLGPLR [P33F] | -0.693 ± 0.33
33 | SMGQARALMGLSAQLDEELDFREGDVITIIGVPEPGWFEGELEQRRGIFPEGFVELLGPLR [G44Q] | -0.683 ± 0.32
34 | SMGQARALMGLSAQLDEELDFREGDVITIIGVPEPGWFEGELEGRRGIFKEGFVELLGPLR [P50K] | -0.212 ± 0.17
35 | SMGQARALMGLSAQLDEELDFREGDVITIIGVPEPGWFEGELEGRRGIFREGFVELLGPLR [P50R] | -0.068 ± 0.061
36 | SMGQARALMGLSAQLDEELDFREGDVITIIGVPEPGWFEGELEGRRGIFGEGFVELLGPLR [P50G] | -0.621 ± 0.072
37 | SMGQARALMGLSAQLDEELDFREGDVITIIGVPEPGWFEGELEGRRGIFYEGFVELLGPLR [P50Y] | -0.794 ± 0.11
38 | SMGQARALMGLSAQLDEELDFREGDVITIIGVPEPGWFEGELEGRRGIFAEGFVELLGPLR [P50A] | -0.736 ± 0.11
39 | SMGQARALMGLSAQLDEELDFREGDVITIIGVPEPGWFEGELEGRRGIFVEGFVELLGPLR [P50V] | -1.02 ± 0.12
40 | SMGQARALMGLSAQLDEELDFREGDVITIIGVPEPGWFEGELEGRRGIFPEGFVELLGMLR [P59M] | -0.386 ± 0.34
41 | SMGQARALMGLSAQLDEELDFREGDVITIIGVPEPGWFEGELEGRRGIFPEGFVELLGTLR [P59T] | -0.685 ± 0.18
42 | SMGQARALMGLSAQLDEELDFREGDVITIIGVPEPGWFEGELEGRRGIFPEGFVELLGKLR [P59K] | -0.889 ± 0.35
43 | SMGQARALMGLSAQLDEELDFREGDVITIIGVPEPGWFEGELEGRRGIFPEGFVELLTPLR [G58T] | -0.079 ± 0.069
44 | SMGQARALMGLSAQLDEELDFREGDVITIIGVPEPGWFEGELEGRRGIFPEGFVELLHPLR [G58H] | -0.23 ± 0.085
